Measured values reported in the Human Domainome abundance scans (Beltran et al. 2025).
± gives the uncertainty stated by the source.

B1: Myocardin, residues 363 to 406; numbered along this chain, Q8IZQ8 (parent)
chain: KPGPLPPNLDDLKVSELRQQLRIRGLPVSGTKTALMDRLRPFQD
B2: Formin-binding protein 4, residues 200 to 261; numbered along this chain, Q8N3X1 (parent)
chain: SGWQYDTQCSLAGVGIEMGDWQEVWDENTGCYYYWNTQTNEVTWELPQYLATQVQGLQHYQP

Variants of: B1
Test: abundance fitness (aPCA) (normalised: wild type 0, dead -1); higher = more abundant; growth selection in yeast, the domain comes from the species named
Details: Homo sapiens
KPGPLPPNLDDLKVSELQQQLRIRGLPVSGTKTALMDRLRPFQD showed an abundance fitness of -0.179 ± 0.11.
KPGPLPPNLDDLKVSELRQQLRIRGLQVSGTKTALMDRLRPFQD gave an abundance fitness of -0.05 ± 0.094.
In the case of KPGPLPPNLDDLKVSELRQQLRIRGLPVSGTKTALMDRLEPFQD, the abundance fitness is reported as -0.152 ± 0.087.
For KPGPLPPNLDDLKVSELRQQLCIRGLPVSGTKTALMDRLRPFQD, the abundance fitness was -0.194 ± 0.34.
KPGPLPPNLDDLKVSELEQQLRIRGLPVSGTKTALMDRLRPFQD showed an abundance fitness of -0.177 ± 0.15.
In the case of KPGPLPPNLDDLKVSELPQQLRIRGLPVSGTKTALMDRLRPFQD, the abundance fitness is reported as -0.727 ± 0.15.
With KPGPLPPNLDDLKVSELRQQLRIKGLPVSGTKTALMDRLRPFQD the abundance fitness was -0.387 ± 0.095.
Work on KPGPLPPNLDDLKVSELRQQLRIRGLPVSGTKTASMDRLRPFQD yielded an abundance fitness of -0.418 ± 0.1.
KPGPLPPNLDDLKVSELRQQLRIRGLPVSGTKTALMDRLRPEQD gave an abundance fitness of -0.148 ± 0.086.
With KPGPLPPNLDDLKVSEGRQQLRIRGLPVSGTKTALMDRLRPFQD the abundance fitness was -0.649 ± 0.064.
KPGPLPPNLDDLKVSELRQQKRIRGLPVSGTKTALMDRLRPFQD showed an abundance fitness of -0.296 ± 0.15.
KPGPLPPNLDDLKVSELRQQLRITGLPVSGTKTALMDRLRPFQD showed an abundance fitness of -0.905 ± 0.26.
With KPGPLPMNLDDLKVSELRQQLRIRGLPVSGTKTALMDRLRPFQD the abundance fitness was 0.239 ± 0.14.
In the case of KPGPLPPNLDDLKVSELRQQLRIRGLPVSGTKTALMFRLRPFQD, the abundance fitness is reported as -1.21 ± 0.22.
Work on KPGPLPPNLDDLKVSELRQQLRIRGLPVSGTKTALMVRLRPFQD yielded an abundance fitness of -0.632 ± 0.081.
In the case of KPGPLPPNLDDLKVSELRQQLRIRGLSVSGTKTALMDRLRPFQD, the abundance fitness is reported as -0.043 ± 0.076.
For KPGPLPPNLDDLKVSELRQGLRIRGLPVSGTKTALMDRLRPFQD, the abundance fitness was -0.697 ± 0.073.
KPGPLPPNLDDLKVDELRQQLRIRGLPVSGTKTALMDRLRPFQD gave an abundance fitness of 0.015 ± 0.079.
With KPGPLPPNLDDLKVSELRQQLRIRGLPVSGTKTALMDRKRPFQD the abundance fitness was -0.595 ± 0.19.
With KPGPLPPNLDDLKVSELRQQLRIRGLPVSGTKTALMDRLRPFQY the abundance fitness was -0.379 ± 0.13.
KPGQLPPNLDDLKVSELRQQLRIRGLPVSGTKTALMDRLRPFQD showed an abundance fitness of 0.136 ± 0.074.
With KPGPLPPNLDDLKVSELRQQLRIRGLPVSGTKTALPDRLRPFQD the abundance fitness was -0.419 ± 0.098.
KPGPLPPNLDDLKVSELRQQLRIRGLPVSGPKTALMDRLRPFQD gave an abundance fitness of -0.222 ± 0.094.
For KPGPLPPNLDCLKVSELRQQLRIRGLPVSGTKTALMDRLRPFQD, the abundance fitness was -0.272 ± 0.26.
Variant KPGPLWPNLDDLKVSELRQQLRIRGLPVSGTKTALMDRLRPFQD has an abundance fitness of -0.484 ± 0.085.
KPGPLPPNLDDLKVSELRQQLRIRKLPVSGTKTALMDRLRPFQD showed an abundance fitness of 0.068 ± 0.14.
KPGPLPPNLDDLKVSELRQQLRIRGIPVSGTKTALMDRLRPFQD showed an abundance fitness of -0.431 ± 0.19.
Variant KPGALPPNLDDLKVSELRQQLRIRGLPVSGTKTALMDRLRPFQD has an abundance fitness of 0.069 ± 0.075.
With KPGPLPPNLDTLKVSELRQQLRIRGLPVSGTKTALMDRLRPFQD the abundance fitness was 0.135 ± 0.1.
Variant KPGPLPPNLDDLKVSELRQQLRIRGLPVLGTKTALMDRLRPFQD has an abundance fitness of -0.333 ± 0.093.
For KPGPLPPELDDLKVSELRQQLRIRGLPVSGTKTALMDRLRPFQD, the abundance fitness was -0.232 ± 0.072.
In the case of KPGPLPPNLDDLKVSELRQQLRIRGLPVIGTKTALMDRLRPFQD, the abundance fitness is reported as -0.376 ± 0.098.
With KPGPLPPNLDDLKVEELRQQLRIRGLPVSGTKTALMDRLRPFQD the abundance fitness was 0.171 ± 0.14.
In the case of KPGPLPYNLDDLKVSELRQQLRIRGLPVSGTKTALMDRLRPFQD, the abundance fitness is reported as -0.085 ± 0.31.
In the case of KPGPLPPNLDDLKVSELRQQLRIRGLPVSGTKTKLMDRLRPFQD, the abundance fitness is reported as -0.4 ± 0.11.
KPGPLPPNLDDLKVSELRLQLRIRGLPVSGTKTALMDRLRPFQD showed an abundance fitness of -0.198 ± 0.088.
For KPGPLPPNLDDLKVSERRQQLRIRGLPVSGTKTALMDRLRPFQD, the abundance fitness was -0.606 ± 0.071.
KPGPLPPNLDDLKVSELRQQLRARGLPVSGTKTALMDRLRPFQD showed an abundance fitness of 0.091 ± 0.062.
For KPGPLPPNLDDLKVSELRQQLVIRGLPVSGTKTALMDRLRPFQD, the abundance fitness was -0.557 ± 0.11.
With KPGPLPPNLDDLKVSELRQQLRIYGLPVSGTKTALMDRLRPFQD the abundance fitness was -1.16 ± 0.34.
With KPGPLPPNLDDLKVSELRQQLRIRGLPVSGTKTALMCRLRPFQD the abundance fitness was -0.39 ± 0.14.
KPGPLPPNLDDLKFSELRQQLRIRGLPVSGTKTALMDRLRPFQD showed an abundance fitness of -0.939 ± 0.43.
KPGPLPPNLDDLKVSELRQQLRIRGLPVSGDKTALMDRLRPFQD gave an abundance fitness of 0.155 ± 0.092.
In the case of KPGPLPPNLADLKVSELRQQLRIRGLPVSGTKTALMDRLRPFQD, the abundance fitness is reported as 0.178 ± 0.081.
Work on KPGPLPPNLNDLKVSELRQQLRIRGLPVSGTKTALMDRLRPFQD yielded an abundance fitness of -0.078 ± 0.17.
KPGPLPPNLDDLKVSELRQQLRIRGWPVSGTKTALMDRLRPFQD gave an abundance fitness of -0.951 ± 0.14.
With KPGPLPPNLDDLKVSELRQQLRIRGLPVSGTKTALMDRLRPFAD the abundance fitness was -0.042 ± 0.1.
Work on KPGPLPPNLDDLKVSELRQQLRIRGKPVSGTKTALMDRLRPFQD yielded an abundance fitness of -0.404 ± 0.2.
With KPGPLPPNLHDLKVSELRQQLRIRGLPVSGTKTALMDRLRPFQD the abundance fitness was -0.315 ± 0.13.
KPGPLPPNLDDLKVSELRQQLRIRGLPVSGHKTALMDRLRPFQD showed an abundance fitness of -0.331 ± 0.13.
KPGPLPPNLDDLKVSELRQQLRIRGLPSSGTKTALMDRLRPFQD gave an abundance fitness of 0.123 ± 0.098.

Variants of: B2
Test: as above
Details: Homo sapiens
With AGWQYDTQCSLAGVGIEMGDWQEVWDENTGCYYYWNTQTNEVTWELPQYLATQVQGLQHYQP the abundance fitness was 0.057 ± 0.11.
Variant CGWQYDTQCSLAGVGIEMGDWQEVWDENTGCYYYWNTQTNEVTWELPQYLATQVQGLQHYQP has an abundance fitness of -0.068 ± 0.16.
With DGWQYDTQCSLAGVGIEMGDWQEVWDENTGCYYYWNTQTNEVTWELPQYLATQVQGLQHYQP the abundance fitness was 0.085 ± 0.41.
EGWQYDTQCSLAGVGIEMGDWQEVWDENTGCYYYWNTQTNEVTWELPQYLATQVQGLQHYQP showed an abundance fitness of 0.066 ± 0.31.
In the case of FGWQYDTQCSLAGVGIEMGDWQEVWDENTGCYYYWNTQTNEVTWELPQYLATQVQGLQHYQP, the abundance fitness is reported as -0.457 ± 0.14.
